Tested on: Escherichia coli TOP10
Assay: shrunken log2 fold change of peptide-encoding DNA abundance (4.5 h post-induction vs induction); higher = less antimicrobial activity (less host growth inhibition)
Settings: time post-induction: 4.5 h; library: site-saturation at positions 5, 18, 19, 20
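Further: peptides expressed intracellularly from a pBAD plasmid library in pooled LB shake-flask culture, induced with 0.3% L-arabinose, DNA abundance read by NGS, three biological replicates, DESeq2 with apeglm shrinkage.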

Row | Sequence | shrunken log2 fold change
1 | RRIRMRPPRLPRPRPRPRSRPRP | 0.997
2 | RRIRDRPPRLPRPRPRPEGKPRP | -0.0117
3 | RRIRIRPPRLPRPRPRPKEFPRP | -0.361
4 | RRIRQRPPRLPRPRPRPNSRPRP | -0.0312
5 | RRIRARPPRLPRPRPRPNNIPRP | -0.537
6 | RRIRGRPPRLPRPRPRPDCYPRP | 0.191
7 | RRIRIRPPRLPRPRPRPTIVPRP | 0.119
8 | RRIRFRPPRLPRPRPRPRAEPRP | 0.363
9 | RRIRYRPPRLPRPRPRPATNPRP | -0.387
10 | RRIRLRPPRLPRPRPRPNGDPRP | -0.00192
11 | RRIRGRPPRLPRPRPRPKWWPRP | 1.13
12 | RRIRVRPPRLPRPRPRPSLCPRP | -0.233
13 | RRIRMRPPRLPRPRPRPQCSPRP | 0.113
14 | RRIRKRPPRLPRPRPRPPNGPRP | 0.189
15 | RRIRDRPPRLPRPRPRPMLHPRP | 0.202
16 | RRIRFRPPRLPRPRPRPFGDPRP | -0.19
17 | RRIRCRPPRLPRPRPRPWHAPRP | -0.271
18 | RRIRERPPRLPRPRPRPQRVPRP | -0.167
19 | RRIRRRPPRLPRPRPRPQTIPRP | 0.272
20 | RRIRVRPPRLPRPRPRPKIVPRP | 0.2
21 | RRIRWRPPRLPRPRPRPTAMPRP | 0.814
22 | RRIRIRPPRLPRPRPRPDRCPRP | -0.163
23 | RRIRERPPRLPRPRPRPWHAPRP | 0.421
24 | RRIRHRPPRLPRPRPRPDINPRP | -0.0579
25 | RRIRGRPPRLPRPRPRPGYHPRP | 0.0713

Row | Sequence | shrunken log2 fold change
26 | RRIRIRPPRLPRPRPRPTHKPRP | 0.201
27 | RRIRRRPPRLPRPRPRPWCYPRP | -0.439
28 | RRIRWRPPRLPRPRPRPCNWPRP | 0.136
29 | RRIRGRPPRLPRPRPRPYEDPRP | -0.017
30 | RRIRSRPPRLPRPRPRPHEEPRP | 0.0919
31 | RRIRNRPPRLPRPRPRPYMFPRP | -0.216
32 | RRIRDRPPRLPRPRPRPGEVPRP | 0.247
33 | RRIRQRPPRLPRPRPRPGVTPRP | 0.0644
34 | RRIRPRPPRLPRPRPRPWLNPRP | -0.541
35 | RRIRMRPPRLPRPRPRPHFEPRP | -0.0874
36 | RRIRTRPPRLPRPRPRPSWFPRP | -0.343
37 | RRIRSRPPRLPRPRPRPEHSPRP | -0.182
38 | RRIRTRPPRLPRPRPRPVNGPRP | 0.0311
39 | RRIRGRPPRLPRPRPRPFMKPRP | -0.248
40 | RRIRIRPPRLPRPRPRPRMFPRP | -0.125
41 | RRIRPRPPRLPRPRPRPVEKPRP | 0.00127
42 | RRIRMRPPRLPRPRPRPSMFPRP | -0.368
43 | RRIRIRPPRLPRPRPRPPIGPRP | -0.0282
44 | RRIRTRPPRLPRPRPRPFAEPRP | 0.0116
45 | RRIRLRPPRLPRPRPRPQKLPRP | -0.17
46 | RRIRGRPPRLPRPRPRPPCGPRP | 0.554
47 | RRIRLRPPRLPRPRPRPYITPRP | -0.716
48 | RRIRIRPPRLPRPRPRPDDVPRP | -0.00433
49 | RRIRMRPPRLPRPRPRPWANPRP | -0.0525
50 | RRIRYRPPRLPRPRPRPFMEPRP | -0.0943

Row | Sequence | shrunken log2 fold change
51 | RRIRIRPPRLPRPRPRPPAHPRP | 0.139
52 | RRIRLRPPRLPRPRPRPVTCPRP | -0.125
53 | RRIRDRPPRLPRPRPRPLYKPRP | 0.00521
54 | RRIRIRPPRLPRPRPRPCNQPRP | -0.297
55 | RRIRARPPRLPRPRPRPMPFPRP | 0.263
56 | RRIRVRPPRLPRPRPRPVAHPRP | 0.0271
57 | RRIRTRPPRLPRPRPRPEYGPRP | -0.0673
58 | RRIRPRPPRLPRPRPRPHYEPRP | -0.206
59 | RRIRQRPPRLPRPRPRPGRSPRP | 0.105
60 | RRIRNRPPRLPRPRPRPMEHPRP | 0.0201
61 | RRIRCRPPRLPRPRPRPHHLPRP | -0.808
62 | RRIRPRPPRLPRPRPRPTRRPRP | 0.591
63 | RRIRDRPPRLPRPRPRPCDKPRP | -0.206
64 | RRIRLRPPRLPRPRPRPRLHPRP | -0.237
65 | RRIRDRPPRLPRPRPRPQRSPRP | 0.0502
66 | RRIRVRPPRLPRPRPRPEMWPRP | 0.0217
67 | RRIRCRPPRLPRPRPRPLQRPRP | 0.203
68 | RRIRSRPPRLPRPRPRPKPFPRP | -0.646
69 | RRIRTRPPRLPRPRPRPFAKPRP | -0.0867
70 | RRIRQRPPRLPRPRPRPVHGPRP | -0.0392
71 | RRIRDRPPRLPRPRPRPQYLPRP | -0.248
72 | RRIRTRPPRLPRPRPRPEIWPRP | 0.264
73 | RRIRVRPPRLPRPRPRPCASPRP | 0.116
74 | RRIRQRPPRLPRPRPRPLYWPRP | -0.11
75 | RRIRARPPRLPRPRPRPCFSPRP | -0.137

Row | Sequence | shrunken log2 fold change
76 | RRIRSRPPRLPRPRPRPVMVPRP | -0.31
77 | RRIRLRPPRLPRPRPRPKNIPRP | -0.499
78 | RRIRCRPPRLPRPRPRPMGVPRP | -0.152
79 | RRIRMRPPRLPRPRPRPFEVPRP | -0.0748
80 | RRIRYRPPRLPRPRPRPLVWPRP | 0.00227
81 | RRIRVRPPRLPRPRPRPNSIPRP | 0.0266
82 | RRIRDRPPRLPRPRPRPFRQPRP | -0.137
83 | RRIRQRPPRLPRPRPRPRIRPRP | 0.024
84 | RRIRGRPPRLPRPRPRPTPSPRP | 0.954
85 | RRIRNRPPRLPRPRPRPAPVPRP | 0.406
86 | RRIRWRPPRLPRPRPRPKSTPRP | 0.126
87 | RRIRVRPPRLPRPRPRPLKIPRP | -0.0769
88 | RRIRVRPPRLPRPRPRPLHEPRP | -0.0936
89 | RRIRKRPPRLPRPRPRPIRTPRP | 0.416
90 | RRIRSRPPRLPRPRPRPFCCPRP | -0.14
91 | RRIRNRPPRLPRPRPRPEQKPRP | -0.00208
92 | RRIRMRPPRLPRPRPRPFGLPRP | -0.0107
93 | RRIRVRPPRLPRPRPRPNWKPRP | -0.0426
94 | RRIRRRPPRLPRPRPRPNVWPRP | 1.99
95 | RRIRSRPPRLPRPRPRPGQIPRP | -0.227
96 | RRIRQRPPRLPRPRPRPDTTPRP | 0.0217
97 | RRIRRRPPRLPRPRPRPDVHPRP | -0.101
98 | RRIRCRPPRLPRPRPRPKAIPRP | -0.0563
99 | RRIRTRPPRLPRPRPRPYCKPRP | -0.129
100 | RRIRLRPPRLPRPRPRPNCRPRP | 0.00739

Row | Sequence | shrunken log2 fold change
101 | RRIRVRPPRLPRPRPRPQTFPRP | -0.122
102 | RRIRWRPPRLPRPRPRPWDMPRP | -0.00946
103 | RRIRARPPRLPRPRPRPAPEPRP | 0.777
104 | RRIRFRPPRLPRPRPRPKRRPRP | 0.0555
105 | RRIRWRPPRLPRPRPRPSMMPRP | 0.157
106 | RRIRKRPPRLPRPRPRPEFAPRP | 1.03
107 | RRIRERPPRLPRPRPRPSQTPRP | -0.067
108 | RRIRKRPPRLPRPRPRPNRQPRP | 1.09
109 | RRIRYRPPRLPRPRPRPVCNPRP | -0.649
110 | RRIRLRPPRLPRPRPRPDGNPRP | -0.0479
111 | RRIRHRPPRLPRPRPRPQMSPRP | -0.0899
112 | RRIRMRPPRLPRPRPRPDWLPRP | -0.0671
113 | RRIRCRPPRLPRPRPRPPVTPRP | 0.0706
114 | RRIRKRPPRLPRPRPRPFKRPRP | -0.00663
115 | RRIRIRPPRLPRPRPRPHQVPRP | -0.614
116 | RRIRFRPPRLPRPRPRPIYLPRP | -0.626
117 | RRIRVRPPRLPRPRPRPYIHPRP | -0.757
118 | RRIRYRPPRLPRPRPRPLTVPRP | -0.146
119 | RRIRTRPPRLPRPRPRPTIKPRP | -0.051
120 | RRIRARPPRLPRPRPRPFAYPRP | -0.289
121 | RRIRPRPPRLPRPRPRPLGYPRP | -0.0805
122 | RRIRLRPPRLPRPRPRPLRDPRP | 0.356
123 | RRIRKRPPRLPRPRPRPANNPRP | 0.0823
124 | RRIRWRPPRLPRPRPRPFRMPRP | -0.122
125 | RRIRHRPPRLPRPRPRPHWWPRP | 0.0507

Reference: the supplement of paper PMC9112550, “Optimization of the antimicrobial peptide Bac7 by deep mutational scanning” (BMC Biology, 2022)
